# From the DeepSol protein solubility set
# Assay: soluble on expression in E. coli; label from the status in PepcDB or PDB records
row,Sequence,soluble on expression in E. coli
1,MNTVLIPPGPGGYGKGLWLPVGSGKKVLSLTGREIHPVAIEIGALTQSEVVNGFADIPPDNDILCVVINCAGSLRCGLYPQKGIPTINVLPTWRAGPLAQFITEENYVSGVTMEQLVLVDTAEAPDGKPETTQEPAPRVISTPPSPRGAEKLVRMVEQTGTAVGHVIALLFAASREAVDVSLRN,not soluble
2,DQVGIWGNSPTAHRGLAVAARHAAPLLRVEDAFLRSLFPGRAGEPPLGLLLDRAGVHFDPTTPSDLEQLLTSAPLDDTTLLNRARDAMARIRENHLSKYCATDPDLPLPEPGYVLVIDQTRGDASVTASGGNDALFREMLVFAQEEHPGARVLIKTHPETAAGFRPGYYGERDISVRVSLYDAPLSPWALLDGAVGVYTLSSQLGFEAILAGHKPRVFGQPFYAGWGLTLDEHPVPRRERRLTRAQLFAAAMILYPTW,not soluble
3,MGSDKIHHHHHHVILKAKVYHKVFAFKDLKEVLAKANEEKSGDVLAGIGATSASERVAAKLVLSNLTLEDLYNHPVLPYEEDEVTRVIYDGLNLRIYQEMKGWTVGQLREYILDHGTTGSHLNHISRGLTSEMIAAVAKLMSNMDLVYGSKKMRHQAHCNTTIGIPGTLAFRCQPNHPTDSVEGVMASLKEGLSYGSGDAVIGINPVEDNVDTLSRLLETVKEFMQQWEIPTQNCVLAHITTQMKAITKGVPIDLVFQSIAGTQKANEAFGISKELIDEAFALIQRNGTATGPNLMYFETGQGSEISLAAHHGVDMMTLESRTYGFGRHYRPFLLNNVSGFIGPETIYSGREVIRADLEDLFMGKLHGLPMGIAPCYTNHMKADQNDQEIATLLCAMAGANYFMGLPGGDDVMLSYQDTSYHDDAATREILGLRPLPEFEKWLEKMGIMENGQLTERAGDPSVFDK,not soluble
4,GPGSGRYREGVEDCTKTLQIDKEFYKAYARRARCHEHLGDHFAAVRDFKKAIEYDSTDRELARELRAAEQNLAKEAEKERDFYFQLGVSRTATEREIKLKYRELSLRWHPDKCIGLDEVERERAEHKFKIISEAYATLVDAGKRREYDAKQDRERFTRAGGFNFSSTYSGGNANDYYRGRHRAGGNGFW,soluble
5,MKLPVREFDAVVIGAGGAGMRAALQISQSGQTCALLSKVFPTRSHTVSAQGGITVALGNTHEDNWEWHMYDTVKGSDYIGDQDAIEYMCKTGPEAILELEHMGLPFSRLDDGRIYQRPFGGQSKNFGGEQAARTAAAADRTGHALLHTLYQQNLKNHTTIFSEWYALDLVKNQDGAVVGCTALCIETGEVVYFKARATVLATGGAGRIYQSTTNAHINTGDGVGMAIRAGVPVQDMEMWQFHPTGIAGAGVLVTEGCRGEGGYLLNKHGERFMERYAPNAKDLAGRDVVARSIMIEIREGRGCDGPWGPHAKLKLDHLGKEVLESRLPGILELSRTFAHVDPVKEPIPVIPTCHYMMGGIPTKVTGQALTVNEKGEDVVVPGLFAVGEIACVSVHGANRLGGNSLLDLVVFGRAAGLHLQESIAEQGALRDASESDVEASLDRLNRWNNNRNGEDPVAIRKALQECMQHNFSVFREGDAMAKGLEQLKVIRERLKNARLDDTSSEFNTQRVECLELDNLMETAYATAVSANFRTESRGAHSRFDFPDRDDENWLCHSLYLPESESMTRRSVNMEPKLRPAFPPKIRTY,soluble
6,MGSDKIHHHHHHMKPVVVMTQTNDMQSDLVSIIHKPFIDIKPLNFDIHLLNQRYDWLIFSSKNAVKFFYKYLKGINVDNIAVIGSKTAQYCESLGIRVDFMPNDFSQEGFLKSFNQTNQKILLPSSELARPLLLAALSKDNEVVKIDLYTSVPNKQNIQDVKEMIEHQQIDALTFSSSSAVRYYFNEGFVPKFKSYFAIGEQTARTIKTYQQPVTIAEIQTLESLIEKILESRG,not soluble
7,MKEDWPEPVKEYNTGQVLFDRLELTRTNEEENLAVWDMIAWYGGDYHRAVFKSEGENVQDDGEPTDLERAELLYGYLVSPFWSFQAGIGTRGTLSSDASMENYAVVSFMGLAPYWFEMDNSLMVNEEGDVQFVSETEYEWQLTQTSYLQPRIELTANLTDSDKYERQSGLSNLRVGLRYRHEISREFAPYIGVYWNGALGNTADEMKRMGKDTTETGVVLGARVWFLEHHHHHH,not soluble
8,MSLSKYKPTWMIDAIYKITPAQLKKLGIKAVLTDLDNTLIAWNNPDGTEELKTWLLEMKNAGITVLVVSNNKDSRIKRVVEKFDLDYVARALKPTARGFKLAEKKLGLKPSEMLMVGDQIMTDIRGANAAGIRNVLVQPIVDTDGWNTRINRFFERKIMKYLSKKHPEMTWRGGLEEGHHHHHH,soluble
9,MRMTINRYNFQALWNRMCMILTSKGGELKFGEIIPDTKRSEMKIGKTLYIVNSRYNGKENIIDKFKRLITRKLESQSKGN,not soluble
10,MGSDKIHHHHHHSSDYFTTNPEVLEAIGGKVPVTINGKFPEKYFKKNATVEVTPVLRWKGGEAKGQPAVFQGEKVEGNNQTIAYKAGGSYTMKASFDYVPEMANSELYLDFKITKGKKSYTIPSVKIADGVIATSELPTAASSNASYANDAFQRIIKDAQTANIMFLIQQANLRNSELNSDDIKEFHKKVAEINADTKNYKLNNIEISAYASPDGGVELNTGLAENREANTEKYMERQLKKGKIDTNLDAKYTAQDWEGFQELVSKSNLQDKDLILRVLSMYNDPEQREAEIKNISSVYKTLADEILPQLRRARLTANYDIIGRSDDEINEAFNSDPKVLSVEELLYAATLTNDNARKEAIFTKTTQLYPNDFRAYNNLGELAFAAGDAAKAESYFKQAASKNANAPEVNANLGLCELVKGNVAAAETYLGKATGANAAGEALGNLYIKQGQYDRAVNSFGDAKTNSAAQAQILAKDYNKAKATLSAIKNPDAMTDYLMAIVGARTNNASLVSSSIKSAIAKDPSMAEKAANDREFAKYADAIK,not soluble
11,MSLRANCLVQTTEWSACSKTCGMGISTRVTNDNASCRLEKQSRLCMVRPCEADLEENIKKGKKCIRTPKISKPIKFELSGCTSMKTYRAKFCGVCTDGRCCTPHRTTTLPVEFKCPDGEVMKKNMMFIKTCACHYNCPGDNDIFESLYYRKMYGDMAEGHHHHHH,not soluble
12,MITSPTNLNSLPIPPGDFGLPWLGETLNFLNDGDFGKKRQQQFGPIFKTRLFGKNVIFISGALANRFLFTKEQETFQATWPLSTRILLGPNALATQMGEIHRSRRKILYQAFLPRTLDSYLPKMDGIVQGYLEQWGKANEVIWYPQLRRMTFDVAATLFMGEKVSQNPQLFPWFETYIQGLFSLPIPLPNTLFGKSQRARALLLAELEKIIKARQQQPPSEEDALGILLAARDDNNQPLSLPELKDQILLLLFAGHETLTSALSSFCLLLGQHSDIRERVRQEQNKLQLSQELTAETLKKMPYLDQVLQEVLRLIPPVGGGFRELIQDCQFQGFHFPKGWLVSYQISQTHADPDLYPDPEKFDPERFTPDGSATHNPPFAHVPFGGGLRECLGKEFARLEMKLFATRLIQQFDWTLLPGQNLELVVTPSPRPKDNLRVKLHSLM,soluble
13,ENIEVHMLNKGAEGAMVFEPAYIKANPGDTVTFIPVDKGHNVESIKDMIPEGAEKFKSKINENYVLTVTQPGAYLVKCTIHYAMGMIALIAVGDSPANLDQIVSAKKPKIVQERLEKVIASAK,soluble
14,MTETRKKPDPIDVYVGTRIRLRRNILGLTQEKLGEKLGITFQQIQKYEKGTNRIGASRLQAIAEIMDVPVSYFFDKGVGTQQVEGFAESDNDFMDFCSSSEGIQLMRAFTNISDSKVRRKIIDLAKALSEEEDLTNKL,not soluble
15,MCILFIALNAHPQYPLIICANRDEFHHRPTAPAQFWPPERNMLAGKDLQAGGTWFGVNTQGQLAGVTNLRVAQKNQEPMRSRGELVIQALNSGSLICPNWLVEHAQDYQPFNLVFGQGTNLYCFNSIRRETVKLTQGFHAISNGAMDDVWPKMAKGQRSLEALIQQSAQLEVESLIKLMQDDSQPQDNELPDTGVGLEWKRRLAAIYIRHPDYGTRSTSILLQNAQGEIQFTEVRYDGKGRRLGQQDFHFTLPPQLPPEPDCLVVFLEHHHHHH,not soluble
16,MDVIKISPRGYCYGVVDAMVIAKNASLDKSLPRPIYILGMIVHNKHVTDAFEEEGILTLDGSNRLDILKQVDKGTVIFTAHGVSPEVRRIAEEKGLVAIDATCPDVTKTHNLILEMKEKGYHVIYIGKKGHPEPEGAVGVAPEIVHLVETEEDVKNLDIQSEKLIVTNQTTMSQWDVHDIMELVKEKYPHVEYHQEICLATQVRQEAVSEQAKKADLTIVVGDPKSNNSNRLAQVSEEIAGTKAYRIGDLSELKLEWLKGVNTVAVTAGASTPTPITKEVIRFLEQFDHEDPSTWTTEHNIPLKKILPKVKAKN,not soluble
17,MGSDKIHHHHHHMMFEDTHDEHVLLTPGPTPIHPRAQKALIRSMLGHMDPEVFALNSEIQRDLREMYGTEPEGFTALLAGTGSLGMEAGFANLVEAGDEVLVCANGSFGRRMAEMAARYGAKVRLVTAPLGEAIKPADVAAHLDDDISMVAVVHGETSTGVLNPVPEIAELVRGSGALLTVDAVTTAGMEPFHMQQWGVDYAYTGAQKCLSAPPGLAPVAISERAFSRFAARRTQTPLWYCDFEGLRDYWVNHTYHHTVPVNLHFAFHAALRAALEEGLEARQARVRLMGRVIERTLAPLGFSHYVRRPEDRLPTVLALRLPEGFDDAGLRQALRQREISVTGGLGPTAGVIWRLGLMGESARPGPYHRLMTELEDLLGAPGLLDRYEAVLAEEQRGELALA,not soluble
18,MEPNPSDPVLTDRIQAIVTTEKSIDEMMKCAREIIQDLGKEKQIGKNKMEDNANNFKKLITQVENELSAQMQYLSHVCVGSSHQGSTFGVLQNSLLAQSGLSSLHSELFQIVRYLDPTSDEPQTTEEDEEDGSDDLNEDGADGAPSSTVTSSTTDGSGGGDDAASSSAPRSQEESGRQMTDDDDDMEQ,not soluble
19,MAHHHHHHMSGSVNRSNSFQKADSMDAKETSTVDRKWVALTAYQPVDVVTKTVEVPVIKTVEKFVPKTIIQEKIIHVPKNVTHIVEKIVEVPEVKYIEKIVEVPHIHYKNKYVPKIEVVEKVVERQKIIEKWHDKIVEVPQIKEVVRFKEIEDAEEVIKYIPRNSKNINWEEEYQKYTQRKGQERYSLDNNAYQQKMSSYNDYNEKAYSQNAYSRSLDFMNKQSSSLNNQSNIRSEDFSQINFFNQYIGSAGASYDKQRNSVPTSSFDARGSLQLKRMPSEEAKPVGCCTSACT,not soluble
20,MSLTGQLHPAVRVADLLQHINQMKTAEGYGFKQEYESFFEGWDATKKKDKVKGSRQEPMPAYDRHRVKLHPMLGDPNADYINANYIDGYHRSNHFIATQGPKPEMVYDFWRMVWQEHCSSIVMITKLVEVGRVKCSRYWPEDSDTYGDIKIMLVKTETLAEYVVRTFALERRGYSARHEVRQFHFTAWPEHGVPYHATGLLAFIRRVKASTPPDAGPIVIHCSAGTGRTGCYIVLDVMLDMAECEGVVDIYNCVKTLCSRRVNMIQTEEQYIFIHDAILEACLCGETTIPVSEFKATYKEMIRIDPQSNSSQLREEFQTLNSVTPPLDVEECSIALLPRNRDKNRSMDVLPPDRCLPFLISTDGDSNNYINAALTDSYTRSAAFIVTLHPLQSTTPDFWRLVYDYGCTSIVMLNQLNQSNSAWPCLQYWPEPGRQQYGLMEVEFMSGTADEDLVARVFRVQNISRLQEGHLLVRHFQFLRWSAYRDTPDSKKAFLHLLAEVDKWQAESGDGRTIVHCLNGGGRSGTFCACATVLEMIRCHNLVDVFFAAKTLRNYKPNMVETMDQYHFCYDVALEYLEGLESREGHHHHHH,soluble
